{
  "source": "patent US20260176365A1",
  "about": "(SYNTHEKINE, published 2026)",
  "binders": {"B1": {"name": "mgp130_VHH13 (VHH)", "VHH": "QVQLQESGGGSVQPGGSLRLSCAASGFTFSTYDMSWVRQAPGKGLEWVSTINYSGSSTYYVDSVLGRFTIARDNAKNTLYLQMNNLQTEDTAVYYCASVKERRSNGHPIVFGDRGQGTQVTVSS", "notes": "As periplasmic extract of the phage clone; also called anti-mouse gp130 VHH; not shown: HA/His tag of the pMECS phagemid"}, "B2": {"name": "mgp130_VHH6 (VHH)", "VHH": "QVQLQESGGGLVQPGGSLRLSCAASGFTLSTYWMYWVRQAPGKGPEWVSAVSRGGFNTYYADSVKGRFTISRDNAKNTVYLQMNSLKPEDTAVYYCMSSVSFYGWPPDRVPSPTGQGTQVTVSS", "notes": "as for B1"}, "B3": {"name": "mgp130_VHH44 Mono-Fc VHH (Fc fusion, not shown: a dimerising Fc or GST)", "chain": "QVQLQESGGGLVQPGGSLRLSCTASGFTFNSAHLKWERQPPGKGLEWVSFITNGGASTGYADSVKGRFTISRDDAKNTLYLQMNNLKTEDTAVYYCATGGLRGQGTQVTVSS"}, "B4": {"name": "mgp130_VHH16 Mono-Fc VHH (Fc fusion, not shown: a dimerising Fc or GST)", "chain": "QVQLQESGGGLVQPGGSLRLSCAASGFTFRNYAMSWVRQAPGKGLEWVSAINSGGGSTYYADSVKGRFTISRDNAKNTLYLQMNSLKPEDTAMYYCAKHVTGDYDPSLRYEYNYWSQGTQVTVSS"}, "B5": {"name": "mgp130_VHH5 Mono-Fc VHH (Fc fusion, not shown: a dimerising Fc or GST)", "chain": "QVQLQESGGGSVQAGGSLRLSCVISGFTYRQTFMGWFRQVVGKEREGVAAISTGGGSTIYADSVKGRFTISQDSSKDTVYLEMNGLKLEDTGMYYCAASTVITSESINRNLYQYWGQGTQVTVSS"}, "B6": {"name": "mgp130_VHH13 Mono-Fc VHH (Fc fusion, not shown: a dimerising Fc or GST)", "chain": "B1 VHH"}, "B7": {"name": "mgp130_VHH48 Mono-Fc VHH (Fc fusion, not shown: a dimerising Fc or GST)", "chain": "QVQLQESGGALVQPGGSLRLSCAASGFTFSYYAMKWVRQAPGKGLEWVSSISGGGGATYYADSVKGRFTISRDNTNDTLYLQMNSLKTEDTAVYYCAAQNLDYRGQGTQVTVSS"}, "B8": {"name": "mgp130_VHH6 Mono-Fc VHH (Fc fusion, not shown: a dimerising Fc or GST)", "chain": "B2 VHH"}, "B9": {"name": "DR591 Mono-Fc VHH (Fc fusion)", "chain": "QVQLQESGGGSVQAGGSLRLSCTASGAIASGYIDSRWCMAWFRQAPGKEREGVAAIWPGGGLTVYADSVKGRFTISRDHAKNTLYLQMNNLKPEDTAMYYCAAGSPRMCPSLEFGFDYWGQGTQVTVSS", "notes": "Mono-Fc format is not described further; also called anti-hGP130 Mono-Fc VHH; not shown: Fc part of the Mono-Fc format"}, "B10": {"name": "DR596 Mono-Fc VHH (Fc fusion)", "chain": "QVQLQESGGGLVQPGGSLRLSCTASGLTFDDSVMGWFRQAPGKGREAVSCISSSGANAFYADSVKGRFTISRDNAKNTLYLQMNSLKPEDTATYYCKRGHACAGYYPIPYDDYWGQGTQVTVSS", "notes": "as for B9"}, "B11": {"name": "DR592 Mono-Fc VHH (Fc fusion)", "chain": "QVQLQESGGGSVQAGGSLRLSCTAPGFTSNSCGMDWYRQAPGKEREFVSSISTDGTTGYADSVKGRFTISKDKAKDTVYLQMNSLKPEDTGMYSCKTKDGTIATMELCDFGYWGQGTQVTVSS", "notes": "as for B9"}, "B12": {"name": "DR595 Mono-Fc VHH (Fc fusion)", "chain": "QVQLQESGGGSVQAGGSLTLSCAASEYAYSTCNMGWYRQAPGKERELVSAFISDGSTYYADSVKGRFTITRDNAKNTVYLQMNSLKPEDTAIYYCSANCYRRLRNYWGQGTQVTVSS", "notes": "as for B9"}, "B13": {"name": "DR594 Mono-Fc VHH (Fc fusion)", "chain": "QVQLQESGGGSVQAGGSLRLSCVASASTYCTYDMHWYRQAPGKGREFVSAIDSDGTTRYADSVKGRFTISQGTAKNTVYLQMNSLQPEDTAMYYCKTVCVVGSRWSDYWGQGTQVTVSS", "notes": "as for B9"}, "B14": {"name": "DR593 Mono-Fc VHH (Fc fusion)", "chain": "QVQLQESGGGSVQAGGSLRLSCAASGYPYSNGYMGWFRQAPGKEREGVATIYTGDGRTYYADSVKGRFTISRDNAKNTVDLQMSSLKPEDTAMYYCAARAAPLYSSGSPLTRARYNVWGQGTQVTVSS", "notes": "as for B9"}},
  "data": [
    {"target": "T1, mgp130 ECD antigen (mouse, UniProt Q00560 23-617)", "T1 construct": "Antigen of biopanning and PE-ELISA; The immunogen was an ECD-human IgG1 hinge-Fc fusion; also called ECD of mouse gp130; ngp130 ECD antigen (so in the source)", "T1 sequence": "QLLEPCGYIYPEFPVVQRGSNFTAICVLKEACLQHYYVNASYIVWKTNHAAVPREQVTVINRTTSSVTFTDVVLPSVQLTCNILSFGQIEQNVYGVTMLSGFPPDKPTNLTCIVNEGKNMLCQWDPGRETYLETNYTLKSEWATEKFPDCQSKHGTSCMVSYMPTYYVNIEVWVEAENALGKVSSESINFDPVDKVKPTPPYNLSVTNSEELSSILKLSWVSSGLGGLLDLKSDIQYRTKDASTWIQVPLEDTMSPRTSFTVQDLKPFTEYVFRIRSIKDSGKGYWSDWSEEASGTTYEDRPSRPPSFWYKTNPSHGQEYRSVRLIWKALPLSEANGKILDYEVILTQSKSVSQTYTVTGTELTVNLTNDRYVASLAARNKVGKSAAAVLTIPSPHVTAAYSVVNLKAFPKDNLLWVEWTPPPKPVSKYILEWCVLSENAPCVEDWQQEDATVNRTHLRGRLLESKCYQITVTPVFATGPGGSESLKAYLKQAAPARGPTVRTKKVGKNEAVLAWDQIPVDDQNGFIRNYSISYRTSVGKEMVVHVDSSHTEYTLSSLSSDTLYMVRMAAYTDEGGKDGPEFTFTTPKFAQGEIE", "assay": "periplasmic extract ELISA (PE-ELISA) of phage clones", "values": [
      {"binder": "B1", "binding result": "binds"},
      {"binder": "B2", "binding result": "binds"}
    ]},
    {"target": "hGP130-his (Sino Biological, Catalog# 10974) (human) (UniProt P40189)", "assay": "SPR (Biacore T200), Mono-Fc VHH captured on Protein A chip, hGP130-his in solution, 1:1 fit", "units": {"Kd": "nM", "koff": "s⁻¹", "kon": "M⁻¹ s⁻¹"}, "values": [
      {"binder": "B3", "Kd": 6, "koff": 0.0012, "kon": 200000},
      {"binder": "B4", "Kd": 17.4, "koff": 0.00036, "kon": 21000},
      {"binder": "B5", "Kd": 90, "koff": 0.0081, "kon": 90000},
      {"binder": "B6", "Kd": 35.6, "koff": 0.0037, "kon": 110000},
      {"binder": "B7", "Kd": 42, "koff": 0.0018, "kon": 43000},
      {"binder": "B8", "Kd": 229, "koff": 0.03, "kon": 130000}
    ]},
    {"target": "T2, hGP130-his (Sino Biological, Catalog# 10974) (human, UniProt P40189 23-619)", "T2 construct": "Bought reagent; also called extracellular domain of gp130; not shown: C-terminal poly-His tag", "T2 sequence": "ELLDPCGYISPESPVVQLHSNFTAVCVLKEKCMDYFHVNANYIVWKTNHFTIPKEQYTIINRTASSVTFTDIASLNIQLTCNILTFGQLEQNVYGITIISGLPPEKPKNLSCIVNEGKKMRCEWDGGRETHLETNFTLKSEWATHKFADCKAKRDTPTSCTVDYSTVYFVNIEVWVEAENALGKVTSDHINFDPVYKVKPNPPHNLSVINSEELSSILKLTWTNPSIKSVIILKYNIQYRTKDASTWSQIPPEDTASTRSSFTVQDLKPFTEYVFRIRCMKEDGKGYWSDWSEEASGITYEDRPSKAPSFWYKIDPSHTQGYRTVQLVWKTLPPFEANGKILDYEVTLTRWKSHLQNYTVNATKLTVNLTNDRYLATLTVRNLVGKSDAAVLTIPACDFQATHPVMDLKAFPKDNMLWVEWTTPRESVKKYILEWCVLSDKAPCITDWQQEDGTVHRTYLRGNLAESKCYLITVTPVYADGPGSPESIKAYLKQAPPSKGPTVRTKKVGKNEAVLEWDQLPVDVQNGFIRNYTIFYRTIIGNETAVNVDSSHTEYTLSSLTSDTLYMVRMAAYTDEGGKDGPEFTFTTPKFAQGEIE", "assay": "SPR (Biacore T200), Mono-Fc VHH captured on Protein A chip, hGP130-his in solution, 1:1 fit", "description": "A representative example from each hgp130 VHH and mgp130 VHH clonotype generated in accordance with Examples 1-3 was selected for evaluation of binding via SPR as follows. […] All experiments were conducted in 10 mM Hepes, 150 mM NaCl, 0.05% (v/v) Polysorbate 20 (PS20) and 3 mM EDTA (HBS-EP+ buffer) on a Biacore T200 instrument equipped with a Protein A derivatized sensor chip (Cytiva). Mono-Fc VHH ligands were flowed at 5 μl/min for variable time ranging from 18 to 300 seconds, reaching the capture loads listed in the tables below. Following ligand capture, […], typically comprising at least five concentrations between 1 μM and 1 nM, were performed in either high performance or single cycle kinetics mode. Surface regeneration was achieved by flowing 10 mM glycine-HCl, pH 1.5 (60 seconds, 50 μL/min). Buffer-subtracted sensograms were processed with Biacore T200 Evaluation Software and globally fit with a 1:1 Langmuir binding model (bulk shift set to zero) to extract kinetics and affinity constants (kₐ, kd, KD). RMAX<100 RU indicates surface density compatible with kinetics analysis. Calculated Rₘₐₓ values were generated using the equation: Rₘₐₓ=Load (RU)×valency of ligand×(Molecular weight of analyte/Molecular weight of ligand). Surface activity was defined as the ratio of experimental/calculated Rmax.", "units": {"Kd": "nM", "koff": "s⁻¹", "kon": "M⁻¹ s⁻¹"}, "values": [
      {"binder": "B9", "Kd": 33, "koff": 0.0019, "kon": 59000},
      {"binder": "B10", "Kd": 44, "koff": 0.0082, "kon": 190000},
      {"binder": "B11", "Kd": 38, "koff": 0.0059, "kon": 160000},
      {"binder": "B12", "Kd": 41, "koff": 0.0073, "kon": 180000},
      {"binder": "B13", "Kd": 58, "koff": 0.0095, "kon": 160000},
      {"binder": "B14", "Kd": 82, "koff": 0.021, "kon": 250000}
    ]}
  ]
}
